Reference: publication PMC9482650, “Quantitative fragmentomics allow affinity mapping of interactomes” (Nature Communications, 2022)

How the values were obtained:
Assay in all cases: holdup assay
Parameters in all cases: key: below the threshold = too weak to quantify, mostly under pKd 3.1 to 4
[1] = target: AHNAK1, Q09666
[2] = target: T1, APBA3_1, O96018
T1 sequence (O96018 389-490, limits assumed, looked up): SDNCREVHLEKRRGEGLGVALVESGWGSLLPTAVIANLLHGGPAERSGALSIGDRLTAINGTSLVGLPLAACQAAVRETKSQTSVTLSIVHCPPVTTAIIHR

[3] = target: T2, DLG3_3, Q92796
T2 sequence (Q92796 374-475, limits assumed, looked up): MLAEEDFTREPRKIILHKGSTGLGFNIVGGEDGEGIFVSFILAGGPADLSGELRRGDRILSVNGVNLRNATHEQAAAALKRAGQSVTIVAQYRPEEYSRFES

[4] = target: DLG4_3, P78352
Chain of DLG4_3, P78352 (P78352 306-403): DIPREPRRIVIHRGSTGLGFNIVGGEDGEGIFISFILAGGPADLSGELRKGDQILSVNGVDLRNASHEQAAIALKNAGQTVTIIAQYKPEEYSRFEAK

[5] = target: DLG5_1, Q8TDM6
Chain of DLG5_1, Q8TDM6 (Q8TDM6 617-713): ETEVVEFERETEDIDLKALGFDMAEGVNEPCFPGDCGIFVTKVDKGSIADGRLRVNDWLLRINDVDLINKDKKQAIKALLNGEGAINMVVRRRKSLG

[6] = target: FRMPD2_3, Q68DX3
Chain of FRMPD2_3, Q68DX3 (Q68DX3 1073-1166): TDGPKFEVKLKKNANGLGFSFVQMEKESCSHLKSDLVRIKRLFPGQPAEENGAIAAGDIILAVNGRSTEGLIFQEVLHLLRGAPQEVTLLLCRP

[7] = target: FRMPD4, Q14CM0
Chain of FRMPD4, Q14CM0 (Q14CM0 67-160): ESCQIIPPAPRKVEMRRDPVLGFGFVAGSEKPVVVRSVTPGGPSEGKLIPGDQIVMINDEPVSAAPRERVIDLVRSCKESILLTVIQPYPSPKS

[8] = target: GIPC2, Q8TF65
Chain of GIPC2, Q8TF65 (Q8TF65 112-203): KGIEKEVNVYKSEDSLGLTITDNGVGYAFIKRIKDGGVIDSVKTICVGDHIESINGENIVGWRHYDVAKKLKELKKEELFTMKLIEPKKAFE

[9] = target: GORASP1, Q9BQQ3
Chain of GORASP1, Q9BQQ3 (Q9BQQ3 1-208): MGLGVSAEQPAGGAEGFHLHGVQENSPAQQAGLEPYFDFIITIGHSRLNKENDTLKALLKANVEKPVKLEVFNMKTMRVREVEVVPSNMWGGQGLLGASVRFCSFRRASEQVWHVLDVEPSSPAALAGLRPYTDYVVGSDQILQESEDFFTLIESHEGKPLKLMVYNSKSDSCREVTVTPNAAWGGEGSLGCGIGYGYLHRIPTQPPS

[10] = target: GRID2IP_2, A4D2P6
Chain of GRID2IP_2, A4D2P6 (A4D2P6 272-370): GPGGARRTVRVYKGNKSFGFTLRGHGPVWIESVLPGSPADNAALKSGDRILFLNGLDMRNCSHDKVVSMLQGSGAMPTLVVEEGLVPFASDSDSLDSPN

[11] = target: IL16_3, Q14005
Chain of IL16_3, Q14005 (Q14005 1107-1207): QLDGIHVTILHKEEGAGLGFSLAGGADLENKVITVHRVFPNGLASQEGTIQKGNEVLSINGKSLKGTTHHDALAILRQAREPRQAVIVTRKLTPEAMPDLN

[12] = target: Inadl_1, Q8NI35
Chain of Inadl_1, Q8NI35 (Q8NI35 113-229): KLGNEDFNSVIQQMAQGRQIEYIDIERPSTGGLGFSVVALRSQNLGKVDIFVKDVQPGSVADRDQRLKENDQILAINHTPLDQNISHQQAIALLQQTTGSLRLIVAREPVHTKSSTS

[13] = target: Inadl_4, Q8NI35
Chain of Inadl_4, Q8NI35 (Q8NI35 547-651): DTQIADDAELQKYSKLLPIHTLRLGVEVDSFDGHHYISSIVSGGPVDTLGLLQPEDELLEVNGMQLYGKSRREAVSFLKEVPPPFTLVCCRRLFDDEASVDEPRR

[14] = target: Inadl_5, Q8NI35
Chain of Inadl_5, Q8NI35 (Q8NI35 673-780): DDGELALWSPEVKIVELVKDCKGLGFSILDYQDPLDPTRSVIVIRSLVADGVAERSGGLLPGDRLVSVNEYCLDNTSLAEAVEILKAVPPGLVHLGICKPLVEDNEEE

[15] = target: Inadl_9, Q8NI35
Chain of Inadl_9, Q8NI35 (Q8NI35 1530-1615): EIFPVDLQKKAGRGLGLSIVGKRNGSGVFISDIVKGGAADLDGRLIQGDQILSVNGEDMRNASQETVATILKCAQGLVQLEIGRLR

[16] = target: LIMK2, P53671
Chain of LIMK2, P53671 (P53671 143-248): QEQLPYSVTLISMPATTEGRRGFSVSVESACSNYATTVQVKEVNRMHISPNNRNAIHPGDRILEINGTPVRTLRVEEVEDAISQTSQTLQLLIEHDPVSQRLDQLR

[17] = target: LNX1_3, Q8TBB1
Chain of LNX1_3, Q8TBB1 (Q8TBB1 500-596): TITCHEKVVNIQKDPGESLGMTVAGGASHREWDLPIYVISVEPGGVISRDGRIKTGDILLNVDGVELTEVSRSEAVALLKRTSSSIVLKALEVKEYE

[18] = target: T3, LNX2_3, Q8N448
T3 sequence (Q8N448 463-564, limits assumed, looked up): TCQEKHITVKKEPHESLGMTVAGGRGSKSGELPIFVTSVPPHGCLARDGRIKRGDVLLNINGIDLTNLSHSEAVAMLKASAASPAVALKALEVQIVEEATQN

[19] = target: T4, LRRC7, Q96NW7
T4 sequence (Q96NW7 1440-1537, limits assumed, looked up): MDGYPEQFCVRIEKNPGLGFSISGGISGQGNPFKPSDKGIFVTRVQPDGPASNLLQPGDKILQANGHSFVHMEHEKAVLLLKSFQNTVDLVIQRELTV

[20] = target: MAGI1_2, Q96QZ7
Chain of MAGI1_2, Q96QZ7 (Q96QZ7 456-580): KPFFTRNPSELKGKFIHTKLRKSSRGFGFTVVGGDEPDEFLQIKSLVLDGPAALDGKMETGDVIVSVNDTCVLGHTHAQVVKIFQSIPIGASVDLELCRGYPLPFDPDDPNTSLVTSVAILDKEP

[21] = target: T5, NHERF3_4, Q5T2W1
T5 sequence (Q5T2W1 373-468, limits assumed, looked up): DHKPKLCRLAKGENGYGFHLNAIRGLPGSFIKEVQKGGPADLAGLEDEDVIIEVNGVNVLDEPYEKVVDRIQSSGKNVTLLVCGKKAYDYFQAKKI

[22] = target: NHERF4_4, Q86UT5
Chain of NHERF4_4, Q86UT5 (Q86UT5 464-550): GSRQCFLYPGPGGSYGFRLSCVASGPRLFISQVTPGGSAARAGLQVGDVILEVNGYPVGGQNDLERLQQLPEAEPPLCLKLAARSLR

[23] = target: NOS1, P29475
Chain of NOS1, P29475 (P29475 9-101): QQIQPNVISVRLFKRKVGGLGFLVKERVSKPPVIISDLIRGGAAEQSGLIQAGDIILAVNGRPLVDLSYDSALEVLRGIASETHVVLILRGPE

[24] = target: T6, PDZD2_2, O15018
T6 sequence (O15018 329-429, limits assumed, looked up): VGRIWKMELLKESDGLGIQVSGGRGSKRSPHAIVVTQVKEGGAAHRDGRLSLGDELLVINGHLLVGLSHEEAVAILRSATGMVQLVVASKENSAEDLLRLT

[25] = target: T7, PDZRN3_1, Q9UPQ7
T7 sequence (Q9UPQ7 244-349, limits assumed, looked up): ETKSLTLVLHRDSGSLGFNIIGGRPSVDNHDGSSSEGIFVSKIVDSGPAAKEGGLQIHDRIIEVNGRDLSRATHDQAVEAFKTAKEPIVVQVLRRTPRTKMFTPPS

[26] = target: T8, SHANK1, Q9Y566
T8 sequence (Q9Y566 658-767, limits assumed, looked up): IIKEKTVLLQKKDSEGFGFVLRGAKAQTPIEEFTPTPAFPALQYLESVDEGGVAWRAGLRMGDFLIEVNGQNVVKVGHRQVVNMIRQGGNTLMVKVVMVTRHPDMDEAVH

[27] = target: T9, SIPA1L2, Q9P2F8
T9 sequence (Q9P2F8 945-1036, limits assumed, looked up): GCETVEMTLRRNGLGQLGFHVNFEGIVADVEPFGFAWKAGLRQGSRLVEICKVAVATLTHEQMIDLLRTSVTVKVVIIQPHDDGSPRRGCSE

[28] = target: SNX27, Q96L92
[29] = target: TJP1_3, Q07157
Chain of TJP1_3, Q07157 (Q07157 416-512): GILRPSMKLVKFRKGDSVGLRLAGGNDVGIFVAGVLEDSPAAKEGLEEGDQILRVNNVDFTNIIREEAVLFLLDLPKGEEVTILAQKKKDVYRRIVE

[30] = plain residues with an end cap or a label only (N-terminal biotin on a linker: (peg)3)
[31] = plain residues with an end cap or a label only (N-terminal biotin on a linker: ado-ado)

Chain of AHNAK1, Q09666 (Q09666 4-100): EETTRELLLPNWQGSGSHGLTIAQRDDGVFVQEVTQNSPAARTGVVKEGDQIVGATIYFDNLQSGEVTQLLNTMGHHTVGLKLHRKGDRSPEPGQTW

For YDEPTTTTSVPL [SARS-Cov2-3a, P0DTC3], the pKd [1, 30] was 3.77, the pKd [2, 30] was “below the threshold” and the pKd [3, 30] was “below the threshold”. The pKd [4, 30] was “below the threshold”, the pKd [5, 30] was “below the threshold” and the pKd [6, 30] was “below the threshold”. For the same binder, the pKd [7, 30] was 3.97, the pKd [8, 30] was “below the threshold” and the pKd [9, 30] was “below the threshold”. The pKd [10, 30] was “below the threshold”, the pKd [11, 30] was “below the threshold” and the pKd [12, 30] was “below the threshold”. For the same binder, the pKd [13, 30] was “below the threshold”, the pKd [14, 30] was “below the threshold” and the pKd [15, 30] was “below the threshold”. The pKd [16, 30] was “below the threshold”, the pKd [17, 30] was “below the threshold” and the pKd [18, 30] was “below the threshold”. For the same binder, the pKd [19, 30] was “below the threshold”, the pKd [20, 30] was “below the threshold” and the pKd [21, 30] was 4.29. For the same binder, the pKd [22, 30] was “below the threshold”, the pKd [23, 30] was “below the threshold” and the pKd [24, 30] was “below the threshold”. The pKd [25, 30] was “below the threshold”, the pKd [26, 30] was “below the threshold” and the pKd [27, 30] was “below the threshold”. For the same binder, the pKd [28, 30] was “below the threshold” and the pKd [29, 30] was “below the threshold”.

RPGFASESKV [ADRB1, P08588] was tested, and the pKd [1, 31] was “below the threshold”, the pKd [2, 31] was “below the threshold” and the pKd [3, 31] was 3.7. For the same binder, the pKd [4, 31] was “below the threshold”, the pKd [5, 31] was “below the threshold” and the pKd [6, 31] was “below the threshold”. For the same binder, the pKd [7, 31] was “below the threshold”, the pKd [8, 31] was “below the threshold” and the pKd [9, 31] was “below the threshold”. For the same binder, the pKd [10, 31] was “below the threshold”, the pKd [11, 31] was “below the threshold” and the pKd [12, 31] was “below the threshold”. The pKd [13, 31] was “below the threshold”, the pKd [14, 31] was “below the threshold” and the pKd [15, 31] was 3.47. The pKd [16, 31] was “below the threshold”, the pKd [17, 31] was “below the threshold” and the pKd [18, 31] was “below the threshold”. The pKd [19, 31] was 3.59, the pKd [20, 31] was 3.88 and the pKd [21, 31] was “below the threshold”. The pKd [22, 31] was “below the threshold”, the pKd [23, 31] was 3.6 and the pKd [24, 31] was 4.2. For the same binder, the pKd [25, 31] was 3.92, the pKd [26, 31] was “below the threshold” and the pKd [27, 31] was “below the threshold”. For the same binder, the pKd [28, 31] was 4.84 and the pKd [29, 31] was “below the threshold”.

For GQETPLNTFC [MAP7D2, Q96T17], the pKd [1, 31] was “below the threshold”, the pKd [2, 31] was “below the threshold” and the pKd [3, 31] was “below the threshold”. The pKd [4, 31] was 3.6, the pKd [5, 31] was “below the threshold” and the pKd [6, 31] was “below the threshold”. The pKd [7, 31] was “below the threshold”, the pKd [8, 31] was “below the threshold” and the pKd [9, 31] was 3.61. The pKd [10, 31] was 3.88, the pKd [11, 31] was “below the threshold” and the pKd [12, 31] was “below the threshold”. The pKd [13, 31] was “below the threshold”, the pKd [14, 31] was “below the threshold” and the pKd [15, 31] was “below the threshold”. For the same binder, the pKd [16, 31] was “below the threshold”, the pKd [17, 31] was “below the threshold” and the pKd [18, 31] was “below the threshold”. For the same binder, the pKd [19, 31] was “below the threshold”, the pKd [20, 31] was “below the threshold” and the pKd [21, 31] was “below the threshold”. The pKd [22, 31] was “below the threshold”, the pKd [23, 31] was “below the threshold” and the pKd [24, 31] was 4.03. The pKd [25, 31] was “below the threshold”, the pKd [26, 31] was “below the threshold” and the pKd [27, 31] was “below the threshold”. For the same binder, the pKd [28, 31] was 3.49 and the pKd [29, 31] was “below the threshold”.
